Assay results published in patent publication US20180155451A1 (published 2018).

T1: FcγRIIb (human, UniProt P31994 43-217)
T1 construct: extracellular domain; Soluble extracellular domain with C-terminal His tag, used as analyte in Biacore; also called FcgRIIb; 2b; not shown: His tag attached to the C terminus
T1 sequence (looked up): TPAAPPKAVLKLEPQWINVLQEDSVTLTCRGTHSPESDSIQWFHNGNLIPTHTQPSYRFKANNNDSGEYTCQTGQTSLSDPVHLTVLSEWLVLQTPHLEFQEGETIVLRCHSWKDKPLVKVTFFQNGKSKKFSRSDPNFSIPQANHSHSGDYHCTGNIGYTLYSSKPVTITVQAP

B1: GpH7-A5/GpH7-B3 variant P238_15Y/GpL16-k0 (antibody, human IgG1, kappa)
heavy 1: not shown
heavy 2: not shown
light: DIVMTQSPLSLPVTPGEPASISCQASESLVHSNRNTYLHWYLQKPGQSPQLLIYKVSNRFSGVPDRFSGSGSGTDFTLKISRVEAEDVGVYYCSQNTHVPPTFGQGTKVEIERTVAAPSVFIFPPSDEQLKSGTASVVCLLNNFYPREAKVQWKVDNALQSGNSQESVTEQDSKDSTYSLSSTLTLSKADYEKHKVYACEVTHQGLSSPVTKSFNRGEC
notes: Heterodimerized IgG1; mutation in the GpH7-B3 H chain only; also called He Ab
B2: GpH7-A5/GpH7-B3 variant S239_01G/GpL16-k0 (antibody, human IgG1, kappa)
heavy 1: not shown
heavy 2: not shown
light: B1 light
notes: as for B1
B3: GpH7-A5/GpH7-B3 variant S239_08L/GpL16-k0 (antibody, human IgG1, kappa)
heavy 1: not shown
heavy 2: not shown
light: B1 light
notes: as for B1
B4: GpH7-A5/GpH7-B3 variant S239_09D/GpL16-k0 (antibody, human IgG1, kappa)
heavy 1: not shown
heavy 2: not shown
light: B1 light
notes: as for B1
B5: GpH7-A5/GpH7-B3 variant S239_10E/GpL16-k0 (antibody, human IgG1, kappa)
heavy 1: not shown
heavy 2: not shown
light: B1 light
notes: as for B1
B6: GpH7-A5/GpH7-B3 variant S267_02A/GpL16-k0 (antibody, human IgG1, kappa)
heavy 1: not shown
heavy 2: not shown
light: B1 light
notes: as for B1
B7: GpH7-A5/GpH7-B3 variant S267_03V/GpL16-k0 (antibody, human IgG1, kappa)
heavy 1: not shown
heavy 2: not shown
light: B1 light
notes: as for B1
B8: GpH7-A5/GpH7-B3 variant S267_06M/GpL16-k0 (antibody, human IgG1, kappa)
heavy 1: not shown
heavy 2: not shown
light: B1 light
notes: as for B1
B9: GpH7-A5/GpH7-B3 variant S267_07I/GpL16-k0 (antibody, human IgG1, kappa)
heavy 1: not shown
heavy 2: not shown
light: B1 light
notes: as for B1
B10: GpH7-A5/GpH7-B3 variant S267_09D/GpL16-k0 (antibody, human IgG1, kappa)
heavy 1: not shown
heavy 2: not shown
light: B1 light
notes: as for B1
B11: GpH7-A5/GpH7-B3 variant S267_10E/GpL16-k0 (antibody, human IgG1, kappa)
heavy 1: not shown
heavy 2: not shown
light: B1 light
notes: as for B1
B12: GpH7-A5/GpH7-B3 variant S267_19Q/GpL16-k0 (antibody, human IgG1, kappa)
heavy 1: not shown
heavy 2: not shown
light: B1 light
notes: as for B1
B13: GpH7-A5/GpH7-B3 variant V266_06M/GpL16-k0 (antibody, human IgG1, kappa)
heavy 1: not shown
heavy 2: not shown
light: B1 light
notes: as for B1
B14: GpH7-A5/GpH7-B3 variant V266_07I/GpL16-k0 (antibody, human IgG1, kappa)
heavy 1: not shown
heavy 2: not shown
light: B1 light
notes: as for B1
B15: GpH7-A5/GpH7-B3 variant V266_08L/GpL16-k0 (antibody, human IgG1, kappa)
heavy 1: not shown
heavy 2: not shown
light: B1 light
notes: as for B1
B16: GpH7-A5/GpH7-B3 variant V266_12R/GpL16-k0 (antibody, human IgG1, kappa)
heavy 1: not shown
heavy 2: not shown
light: B1 light
notes: as for B1

Each binder was assayed against T2, FcγRIa (human, UniProt P12314 16-292) (assay: SPR (Biacore), antibody captured on antigen peptide, FcγR as analyte; relative to GpH7-A5/GpH7-B3/GpL16-k0 = 100).
T2 construct: extracellular domain; Soluble extracellular domain with C-terminal His tag, used as analyte in Biacore; also called FcgRI; 1a; not shown: His tag attached to the C terminus
T2 sequence (P12314 16-292): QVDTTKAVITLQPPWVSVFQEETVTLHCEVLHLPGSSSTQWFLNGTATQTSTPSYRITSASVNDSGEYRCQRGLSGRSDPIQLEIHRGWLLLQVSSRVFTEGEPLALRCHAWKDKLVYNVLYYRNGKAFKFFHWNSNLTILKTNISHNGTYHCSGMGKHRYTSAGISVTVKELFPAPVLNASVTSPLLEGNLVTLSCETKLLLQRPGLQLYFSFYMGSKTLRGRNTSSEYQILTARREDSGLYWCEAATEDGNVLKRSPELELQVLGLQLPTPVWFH

| Binder | He/Con_1a |
| --- | --- |
| B1 | 101 % of control |
| B2 | 101 % of control |
| B3 | 99.8 % of control |
| B4 | 101 % of control |
| B5 | 105 % of control |
| B6 | 109 % of control |
| B7 | 106 % of control |
| B8 | 106 % of control |
| B9 | 100 % of control |
| B10 | 110 % of control |
| B11 | 106 % of control |
| B12 | 102 % of control |
| B13 | 99.7 % of control |
| B14 | 99.3 % of control |
| B15 | 98.1 % of control |
| B16 | 59.2 % of control |

What follows are binders tested against T1, FcγRIIb in the same assay as above.

| Binder | He/Con_2b |
| --- | --- |
| B1 | 218 % of control |
| B2 | 144 % of control |
| B3 | 140 % of control |
| B4 | 206 % of control |
| B5 | 181 % of control |
| B6 | 243 % of control |
| B7 | 192 % of control |
| B8 | 210 % of control |
| B9 | 192 % of control |
| B10 | 310 % of control |
| B11 | 379 % of control |
| B12 | 218 % of control |
| B13 | 251 % of control |
| B14 | 152 % of control |
| B15 | 236 % of control |
| B16 | -1.1 % of control |

These binders were tested against T2, FcγRIa (assay: SPR (Biacore); He/Con_1a divided by He/Con_2b (FcγRIa against FcγRIIb)).

| Binder | Ia/IIb He_1a/2b [ratio] |
| --- | --- |
| B1 | 0.46 |
| B2 | 0.7 |
| B3 | 0.71 |
| B4 | 0.49 |
| B5 | 0.58 |
| B6 | 0.45 |
| B7 | 0.55 |
| B8 | 0.51 |
| B9 | 0.52 |
| B10 | 0.35 |
| B11 | 0.28 |
| B12 | 0.47 |
| B13 | 0.4 |
| B14 | 0.65 |
| B15 | 0.42 |
| B16 | -55.6 |
